According to patent US7786356B2, “Method for the production of calendic acid, a fatty acid containing delta 8,10,12 conjugated double bonds and related fatty acids having a modification at the delta 9 position” (E.I. du Pont de Nemours and Company, priority 1999, dated 2010):

Tested on: somatic soybean embryos
Experiment: Production of dimorphecolic acid in transgenic somatic soybean embryos expressing DMFad2-1 and/or DMFad2-2
Format: cell-based
Source text: Initially, the open-reading frames of cDNAs for DMFad2-1 and DMFad2-2 were amplified by PCR using Pfu polymerase (Stratagene) to generate the appropriate restriction enzyme sites for cloning into the soybean expression vector. For amplification of the open-reading frame of the DMFad2-1 cDNA, EST dms2c.pk006.d7 (SEQ ID NO: 10 for the nucleotide sequence, and SEQ ID NO:11 for the polypeptide translation product) was used as the template, and the oligonucleotide primers were: 5′-tatgcggccgcAAATGGGAGCAGGAGGTTG-3′ (sense, SEQ ID NO:22) and 5′-tttgcggccgc[…]-3′ (antisense, SEQ ID NO:23). For amplification of the open-reading frame of the DMFad2-2 cDNA, EST dms2c.pk001.113 (SEQ ID NO:12 for the nucleotide sequence, and SEQ ID NO:13 for the polypeptide translation product) was used as the template, and the oligonucleotide primers were: 5′-tgcggccgc[…]-3′ (sense, SEQ ID NO:24) and 5′-tagcggccgcTGATTAATCAAGTCTTAG-3′ (antisense, SEQ ID NO:25). The nucleotides shown in lower case are not Dimorphotheca sequences, but instead encode an added NotI site along with additional bases to facilitate restriction enzyme digestion. The resulting PCR products were subcloned into the intermediate vector pCR-Script AMP SK(+) (Stratagene) according to the manufacturer's protocol. […]
The expression constructs containing the DMFad2-1 and DMFad2-2 coding sequences in vector pKS67 were transformed into somatic soybean embryos using the biolistic method as described in Example 10. […] The fatty acid compositions of the resulting transgenic soybean embryos were then assessed for the presence of novel fatty acid structures. […] The resulting transgenic soybean embryos selected for hygromycin resistance were analyzed for alterations in fatty acid content relative to untransformed embryos. […] The recovered fatty acid methyl esters and derivatives were then analyzed using a Hewlett-Packard 6890 chromatograph fitted with an Omegawax 320 column (30 m×0.32 mm inner diameter; Supelco). […] Fatty acid methyl esters were also analyzed by GC-MS an HP6890 interfaced with a HP5973 (Hewlett-Packard) mass selective detector. […]

B1: DMFad2-2: Dimorphotheca sinuata Δ-9 hydroxy-conjugase (SEQ ID NO:12/13) converting trans-linoleic acid to dimorphecolic acid (protein, listed as Dimorphotheca sinuata)
chain: MGASEEMKVLERVPVSKPPFEYNDLKKAVPPHCFTRSLSLSFYYLFYDLIKVCILFYVASKYIPMLPYSLSCIVWPLYWFFQGAFLGRLWMIGHECGHHSFSNYRWLDDTVGFLVHTATLTPYFSFKYSHRNHHAHTNSLEYDEVHVPKIRKFKSEHLYSEFLTNNPFGLVVNMVFELTFGYPSYLIFNYSGRKLTQAGFASHLYPQSPIFNDSERNHVFFSDVGICIVLYALYRIAIAKGAMLVLYVYGLPWVVMSAFIFSLTYLQHTHPSIPHYDSTEWNWLRGALSSIDRELAGAFNIKKTHYHVVHHLFPFIPEYHAHDATEALKPILGPYYKYDGTPFYKALWREMKDCLYVESDDGPNKTGVYWFKTKT
dimorphecolic acid accumulation ("DMFad2-2 alone" transformants): less than 0.1%
18:2Δ9cis,12trans in extracts of somatic soybean embryos (FIG. 9) (embryo extracts of FIG. 9 panels B and C): lacked detectable amounts
dimorphecolic acid isomers, share of the total fatty acids (experiment MSE 229, GC-MS selected ion 225 m/z): < 0.1%
